The target of this test is T1, human CD39 on the cell surface (human, UniProt P49961 1-510).
T1 construct: whole, on cells; This one entry covers every cell-surface human CD39 assay, on transfected and on endogenous cells; also called 239T-hCD39; Jurkat-hCD39
T1 sequence (looked up): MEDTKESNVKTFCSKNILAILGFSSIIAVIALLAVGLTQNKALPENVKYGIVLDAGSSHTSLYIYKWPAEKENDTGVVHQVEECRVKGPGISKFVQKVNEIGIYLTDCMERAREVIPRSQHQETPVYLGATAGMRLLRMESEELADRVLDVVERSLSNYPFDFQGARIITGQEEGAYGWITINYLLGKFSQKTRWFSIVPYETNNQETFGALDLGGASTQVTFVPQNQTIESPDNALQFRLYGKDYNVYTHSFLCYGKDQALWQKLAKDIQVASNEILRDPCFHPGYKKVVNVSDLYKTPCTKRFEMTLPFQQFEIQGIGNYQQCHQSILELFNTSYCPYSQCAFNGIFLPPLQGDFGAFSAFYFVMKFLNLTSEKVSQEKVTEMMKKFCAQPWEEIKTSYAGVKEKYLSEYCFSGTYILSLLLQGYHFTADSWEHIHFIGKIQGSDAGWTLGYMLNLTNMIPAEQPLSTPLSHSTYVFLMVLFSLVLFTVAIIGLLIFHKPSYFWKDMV
The experiment in a line: flow cytometry on human CD39-overexpressing HEK293T or Jurkat cells. (A flow cytometer gives signals particle by particle.)

B1: P4_h1lala (antibody, V domains shown)
VH: QVQLKESGPSLVQPSQSLSITCTVSGFSLTNYGVHWVRQSPGKGLEWLGVILRRGSTDYNAAFMSRLSITKDNSKSQVFFKMNSLQADDTAIYYCAKTAVVAGDYFDYWGQGTTLTVSS
VL: DIVMTQSHKFMSTSVGDRVSVTCKASQNVGTNVAWYQQKPGQSPKALIYSASYRYSGVPDRFTGSGSGTDFTLTISNVQSEDLAEYFCQQYNSYPLTFGTGTKLEIKR
notes: Chimeric antibody
As for B1, the binding result is reported as “binds”.

Values taken from patent US20250215105A1 (BRIGHTPATH BIOTHERAPEUTICS, published 2025).
